Laboratory results from patent US20140087995A1 (published 2014).
Numbered stars: 1 amine (or outer) side, 2 acyl side, 3 side chain; on linkers, the order of the positions; unused ones are H or OH. Bridge positions count the residues as written; N and C are the ends. Side chains are listed from the residue outwards. Ends that are not written are not given here. * marks the point of attachment. C20 diacid = O=C(O)CCCCCCCCCCCCCCCCCCC(=O)*; γGlu = O=C(O)[C@H](CCC(=O)[*:2])N[*:1]

T1: rat calcitonin receptor (rat, UniProt P32214 25-516)
T1 construct: whole, on cells; Used as membranes prepared from BHK tk'ts 13 cells transiently transfected with the rat calcitonin receptor (Assay VIII); also called rCTR; rat calcitonin (a) receptor
T1 sequence (looked up): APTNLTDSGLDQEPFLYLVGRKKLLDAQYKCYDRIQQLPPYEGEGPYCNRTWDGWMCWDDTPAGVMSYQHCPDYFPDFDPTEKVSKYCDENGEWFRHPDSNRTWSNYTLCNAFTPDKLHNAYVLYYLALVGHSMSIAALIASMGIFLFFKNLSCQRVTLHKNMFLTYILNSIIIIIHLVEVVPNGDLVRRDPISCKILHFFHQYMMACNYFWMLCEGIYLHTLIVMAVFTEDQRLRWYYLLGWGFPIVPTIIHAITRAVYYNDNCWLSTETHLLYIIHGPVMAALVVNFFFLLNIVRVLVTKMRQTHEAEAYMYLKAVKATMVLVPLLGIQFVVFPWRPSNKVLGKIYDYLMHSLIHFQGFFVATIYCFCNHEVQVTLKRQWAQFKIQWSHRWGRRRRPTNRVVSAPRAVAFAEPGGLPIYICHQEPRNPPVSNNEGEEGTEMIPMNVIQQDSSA

T2: human calcitonin receptor (human, UniProt P30988 25-474)
T2 construct: whole, on cells; Used as membranes prepared from a BHK tk'ts 13 cell line stably transfected with the human calcitonin receptor (Assay VII); also called hCTR; hCT
T2 sequence (looked up): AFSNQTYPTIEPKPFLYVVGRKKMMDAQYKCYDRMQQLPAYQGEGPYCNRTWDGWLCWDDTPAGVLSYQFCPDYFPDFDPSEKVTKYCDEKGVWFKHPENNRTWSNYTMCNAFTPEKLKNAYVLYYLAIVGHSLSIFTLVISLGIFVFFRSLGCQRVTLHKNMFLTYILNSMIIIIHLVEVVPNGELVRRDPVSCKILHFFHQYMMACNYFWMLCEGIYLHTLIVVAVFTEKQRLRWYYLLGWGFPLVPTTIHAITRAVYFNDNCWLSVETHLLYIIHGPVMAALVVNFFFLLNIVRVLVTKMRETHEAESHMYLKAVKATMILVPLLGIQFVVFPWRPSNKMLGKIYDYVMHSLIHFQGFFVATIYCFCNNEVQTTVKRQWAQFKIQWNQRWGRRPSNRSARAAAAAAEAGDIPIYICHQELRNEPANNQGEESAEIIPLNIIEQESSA

T3: rat amylin receptor (rat calcitonin receptor + rat RAMP 3) (rat, UniProt P32214 25-516; Q9JJ73 23-147)
T3 construct: whole, on cells; Used as membranes prepared from BHK tk'ts 13 cells transiently transfected with rat calcitonin receptor and rat RAMP 3 (Assay VI); also called rAmylin-R; rat amylin 3(a) receptor
T3 sequence (looked up) 1: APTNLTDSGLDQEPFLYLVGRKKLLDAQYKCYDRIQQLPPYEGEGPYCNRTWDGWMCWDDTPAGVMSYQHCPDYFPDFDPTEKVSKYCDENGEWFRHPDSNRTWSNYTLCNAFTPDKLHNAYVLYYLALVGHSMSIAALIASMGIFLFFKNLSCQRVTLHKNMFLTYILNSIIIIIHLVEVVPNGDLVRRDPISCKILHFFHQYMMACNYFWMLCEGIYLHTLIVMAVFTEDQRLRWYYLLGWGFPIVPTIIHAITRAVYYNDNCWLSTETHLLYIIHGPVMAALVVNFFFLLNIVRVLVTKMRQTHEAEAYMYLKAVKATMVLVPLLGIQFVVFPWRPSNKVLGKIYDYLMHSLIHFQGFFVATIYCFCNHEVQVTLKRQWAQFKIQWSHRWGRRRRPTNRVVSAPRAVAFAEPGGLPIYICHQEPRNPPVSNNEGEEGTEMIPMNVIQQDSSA
T3 sequence (looked up) 2: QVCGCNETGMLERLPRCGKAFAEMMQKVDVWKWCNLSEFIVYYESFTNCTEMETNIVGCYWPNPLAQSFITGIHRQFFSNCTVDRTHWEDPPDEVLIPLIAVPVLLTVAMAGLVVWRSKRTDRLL


What was measured:
[1] = biological target: T1, rat calcitonin receptor; assay: IC50 on rat CTR divided by IC50 on rat amylin receptor (Assays VIII/VI)
[2] = biological target: T2, human calcitonin receptor; assay: IC50 on human CTR divided by IC50 on human amylin receptor (Assays VII/V)
Procedure, shortened: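 IC₅₀ values were derived by one-site competition analysis of SPA counts. Cell membranes (35 ng/μL) with SPA beads were incubated with test compounds for 120 min at 25° C in Hepes buffer, pH 7.4, containing CaCl2, MgCl₂, OA and Tween20.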

[3] = biological target: T1, rat calcitonin receptor; assay: SPA competition with 125I-calcitonin, membranes of BHK cells with rat CTR (Assay VIII)
[4] = biological target: T3, rat amylin receptor (rat calcitonin …); assay: SPA competition with 125I-rat amylin, membranes of BHK cells with rat CTR + rat RAMP3 (Assay VI)

Binder	Ratio rCT/rAmylin binding [1]	Ratio hCT/hAmylin binding [2]	IC50 [3] [nM]	IC50 [4] [nM]
K([γGlu-C20 diacid])CNTATCATQRLANFLRHSSPNFGAIPSSTNVGRNTY-NH2 (disulfide 2-7; N-terminus assumed; SMILES CC[C@H](C)[C@H](NC(=O)[C@H](C)NC(=O)CNC(=O)[C@H](Cc1ccccc1)NC(=O)[C@H](CC(N)=O)NC(=O)[C@@H]1CCCN1C(=O)[C@H](CO)NC(=O)[C@H](CO)NC(=O)[C@H](Cc1c[nH]cn1)NC(=O)[C@H](CCCNC(=N)N)NC(=O)[C@H](CC(C)C)NC(=O)[C@H](Cc1ccccc1)NC(=O)[C@H](CC(N)=O)NC(=O)[C@H](C)NC(=O)[C@H](CC(C)C)NC(=O)[C@H](CCCNC(=N)N)NC(=O)[C@H](CCC(N)=O)NC(=O)[C@@H](NC(=O)[C@H](C)NC(=O)[C@@H]1CSSC[C@H](NC(=O)[C@@H](N)CCCCNC(=O)CC[C@H](NC(=O)CCCCCCCCCCCCCCCCCCC(=O)O)C(=O)O)C(=O)N[C@@H](CC(N)=O)C(=O)N[C@@H]([C@@H](C)O)C(=O)N[C@@H](C)C(=O)N[C@@H]([C@@H](C)O)C(=O)N1)[C@@H](C)O)C(=O)N1CCC[C@H]1C(=O)N[C@@H](CO)C(=O)N[C@@H](CO)C(=O)N[C@H](C(=O)N[C@@H](CC(N)=O)C(=O)N[C@H](C(=O)NCC(=O)N[C@@H](CCCNC(=N)N)C(=O)N[C@@H](CC(N)=O)C(=O)N[C@H](C(=O)N[C@@H](Cc1ccc(O)cc1)C(N)=O)[C@@H](C)O)C(C)C)[C@@H](C)O, Analogue of human amylin; also called compound 79) [N^ε1-[(4S)-4-carboxy-4-(19-carboxynonadecanoylamino)butanoyl]-[Arg17,Pro21,Pro27,Arg34]-h-amylin]	21.5	46.1	35.5	1.65
K([γGlu-C20 diacid])CNTATCATQRLANFLRHSSPNFGAIPSSTNVGHNTY-NH2 (disulfide 2-7; N-terminus assumed; SMILES CC[C@H](C)[C@H](NC(=O)[C@H](C)NC(=O)CNC(=O)[C@H](Cc1ccccc1)NC(=O)[C@H](CC(N)=O)NC(=O)[C@@H]1CCCN1C(=O)[C@H](CO)NC(=O)[C@H](CO)NC(=O)[C@H](Cc1c[nH]cn1)NC(=O)[C@H](CCCNC(=N)N)NC(=O)[C@H](CC(C)C)NC(=O)[C@H](Cc1ccccc1)NC(=O)[C@H](CC(N)=O)NC(=O)[C@H](C)NC(=O)[C@H](CC(C)C)NC(=O)[C@H](CCCNC(=N)N)NC(=O)[C@H](CCC(N)=O)NC(=O)[C@@H](NC(=O)[C@H](C)NC(=O)[C@@H]1CSSC[C@H](NC(=O)[C@@H](N)CCCCNC(=O)CC[C@H](NC(=O)CCCCCCCCCCCCCCCCCCC(=O)O)C(=O)O)C(=O)N[C@@H](CC(N)=O)C(=O)N[C@@H]([C@@H](C)O)C(=O)N[C@@H](C)C(=O)N[C@@H]([C@@H](C)O)C(=O)N1)[C@@H](C)O)C(=O)N1CCC[C@H]1C(=O)N[C@@H](CO)C(=O)N[C@@H](CO)C(=O)N[C@H](C(=O)N[C@@H](CC(N)=O)C(=O)N[C@H](C(=O)NCC(=O)N[C@@H](Cc1c[nH]cn1)C(=O)N[C@@H](CC(N)=O)C(=O)N[C@H](C(=O)N[C@@H](Cc1ccc(O)cc1)C(N)=O)[C@@H](C)O)C(C)C)[C@@H](C)O, Analogue of human amylin; also called compound 77) [N^ε1-[(4S)-4-carboxy-4-(19-carboxynonadecanoylamino)butanoyl]-[Arg17,Pro21,Pro27,His34]-h-amylin]	137	118	205	1.5
